Test results as given in patent publication US10208288B2, “Differentiation of human embryonic stem cells into pancreatic endocrine cells” (Janssen Biotech, Inc., priority 2012, dated 2019).

Test system: cells of the human embryonic stem cell line H1 differentiated to stage 5
Experiment: Real-time PCR of pancreatic endoderm/endocrine genes after factors spiked into stage 5 media
Type: cell-based
Experimental: Cells of the human embryonic stem cell line H1 (hESC H1, passage 40) were seeded as single cells at 1×10^5 cells/cm^2 on MATRIGEL™ (1:30 dilution; BD Biosciences, NJ)-coated dishes in mTeSR®1 media (StemCell Technologies, Vancouver, Canada) supplemented with 10 μM of Y27632 (Rock inhibitor, Catalog No. Y0503, SigmaAldrich, St. Louis, Mo.). Forty-eight hours post seeding, cultures were washed in incomplete PBS (phosphate buffered saline without Mg or Ca). Cultures were differentiated into pancreatic endoderm/endocrine lineages as follows: • a) Stage 1 (Definitive Endoderm (DE)—3 days): Cells were cultured for one day in stage 1 media: MCDB-131 medium (Catalog No. 10372-019, Invitrogen, Carlsbad, Calif.) supplemented with 0.1% fatty acid-free BSA (Catalog No. 68700, Proliant, Ankeny, Iowa), 0.0012 g/ml sodium bicarbonate (Catalog No. S3187, SigmaAldrich, St. Louis, Mo.), 1× GlutaMax™ (Invitrogen Catalog No. 35050-079), 4.5 mM D-Glucose (SigmaAldrich Catalog No. G8769), 100 ng/ml GDF8 (R&D Systems, Minneapolis, Minn.) and 1 μM MCX compound (a GSK3B inhibitor, 14-Prop-2-en-1-yl-3,5,7,14,17,23,27-heptaazatetracyclo [19.3.1.1˜2,6˜0.1˜8,12˜]heptacosa-1(25),2(27),3,5,8(26),9,11,21,23-nonaen-16-one, US Patent Application Publication No. 2010-0015711; incorporated herein by reference in its entirety). Cells were then cultured for additional day in MCDB-131 medium supplemented with 0.1% fatty acid-free BSA, 0.0012 g/ml sodium bicarbonate, 1× GlutaMax™, 4.5 mM D-Glucose, 100 ng/ml GDF8, and 0.1 μM MCX compound. Cells were then cultured for an additional day in MCDB-131 medium supplemented with 0.1% fatty acid-free BSA, 0.0012 g/ml sodium bicarbonate, 1× GlutaMax™, 4.5 mM D-Glucose, and 100 ng/ml GDF8, then • b) Stage 2 (Primitive gut tube—2 days): Cells were treated for two days with MCDB-131 medium supplemented with 0.1% fatty acid-free BSA; 0.0012 g/ml sodium bicarbonate; 1× GlutaMax™; 4.5 mM D-Glucose; 0.25 mM ascorbic acid (Sigma, St. Louis, Mo.) and 25 ng/ml FGF7 (R & D Systems, Minneapolis, Minn.), then • c) Stage 3 (Foregut—2 days): Cells were treated with MCDB-131 medium supplemented with a 1:200 dilution of ITS-X (Invitrogen); 4.5 mM Glucose; 1× GlutaMax™; 0.0017 g/ml sodium bicarbonate; 2% fatty acid-free BSA; 0.25 μM SANT-1 (Sigma, St. Louis, Mo.); 10 ng/ml of Activin-A (R & D Systems); 1 μM retinoic acid (RA; Sigma); 25 ng/ml FGF7; 0.25 mM ascorbic acid; 200 nM TPB (a PKC activator; Catalog No. 565740; EMD Chemicals, Gibstown, N.J.); 10 μM forskolin (FSK, Sigma), and 100 nM LDN (a BMP receptor inhibitor; Catalog No. 04-0019; Stemgent; San Diego, Calif.) for day 1. On day 2, cells were treated with MCDB-131 medium supplemented with a 1:200 dilution of ITS-X; 4.5 mM Glucose; 1× GlutaMax™; 0.0017 g/ml sodium bicarbonate; 2% fatty acid-free BSA; 0.25 μM SANT-1; 10 ng/ml of Activin A; 1 μM RA; 25 ng/ml FGF7; 0.25 mM ascorbic acid, 200 nM TPB, 10 μM forskolin and 10 nM LDN, then • d) Stage 4 (Pancreatic foregut precursor—2 days); Cells were treated with MCDB-131 medium supplemented with a 1:200 dilution of ITS-X; 4.5 mM Glucose; 1× GlutaMax™; 0.0015 g/ml sodium bicarbonate; 2% fatty acid-free BSA; 0.25 μM SANT-1; 50 nM RA; 50 nM LDN-193189; 10 μM forskolin; 0.25 mM ascorbic acid; and 100 nM TPB for two days, then • e) Stage 5 (Pancreatic endoderm/endocrine—3 days): Stage 4 cells were treated with MCDB-131 medium supplemented with a 1:200 dilution of ITS-X; 20 mM Glucose; 1× GlutaMax™; 0.0015 g/ml sodium bicarbonate; 2% fatty acid-free BSA; 0.25 μM SANT-1; 50 nM RA; 10 μM forskolin; 0.25 mM ascorbic acid for three days, with the addition of 100 nM ALk5 inhibitor SD-208 (disclosed in Molecular Pharmacology 2007, 72:152-161) for days 2-3 only.
At day 1 of stage 5, the factors listed in Table I, below, were spiked into the media and upon completion of S5 (day 3 of stage 5) mRNA was collected for PCR analysis of relevant pancreatic endoderm/endocrine genes. As a control, cultures were treated only with the S5 media listed above. […]

B1: Ephrin-A4: Ephrin ligand protein, R & D Systems catalogue number 369-EA (protein, UniProt P52798 26-170, looked up)
Ephrin-A4: LRHVVYWNSSNPRLLRGDAVVELGLNDYLDIVCPHYEGPGPPEGPETFALYMVDWPGYESCQAEGPRAYKRWVCSLPFGHVQFSEKIQRFTPFSLGFEFLPGETYYYISVPTPESSGQCLRLQVSVCCKERKSESAHPVGSPGES
PDX1 expression (Ephrin-A4 100 ng/ml at S5, mRNA at day 3 of S5, vs control, FIG. 1E): minimal impact
NGN3 expression (Ephrin-A4 100 ng/ml at S5, mRNA at day 3 of S5, vs control, FIG. 1G): minimal impact
mRNA expression of insulin (factor spiked at day 1 of stage 5, mRNA at day 3 of S5, vs control cultures, Table I: Ephrin-A4 100 ng/ml, Activin A and Activin C 20 ng/ml, FIG. 1A): enhanced
mRNA expression of NKX6.1 (factor spiked at day 1 of stage 5, mRNA at day 3 of S5, vs control cultures, Table I: Ephrin-A4 100 ng/ml, Semaphorin 3a 50 ng/ml, Epigen 20 ng/ml, FIG. 1F): enhanced
